Patent US20240270821A1, “GIP/GLP1/GCG TRI-RECEPTOR AGONISTS AND USES THEREOF” (priority 2023, published 2024)

T1: human GIP receptor (human) (UniProt P48546)
T1 sequence (looked up): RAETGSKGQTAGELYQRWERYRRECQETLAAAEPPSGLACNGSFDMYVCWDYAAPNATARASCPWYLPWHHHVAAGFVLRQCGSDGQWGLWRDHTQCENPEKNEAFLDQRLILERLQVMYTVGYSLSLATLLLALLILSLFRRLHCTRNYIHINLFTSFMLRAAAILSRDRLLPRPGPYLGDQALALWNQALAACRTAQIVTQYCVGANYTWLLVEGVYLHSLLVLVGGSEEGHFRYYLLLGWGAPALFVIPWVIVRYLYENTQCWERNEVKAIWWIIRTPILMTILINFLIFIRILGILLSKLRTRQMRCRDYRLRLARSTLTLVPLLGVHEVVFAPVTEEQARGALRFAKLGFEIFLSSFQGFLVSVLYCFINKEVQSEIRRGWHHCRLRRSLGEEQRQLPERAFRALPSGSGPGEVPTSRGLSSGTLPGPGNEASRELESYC

B1: Example 1179 (peptide)
chain: YXQGTXTSDXXIXLDXKAQXEFIEXLIEGGPSSGEPPPSGSE
modifications: non-natural residues, C-terminal amide, acylated Lys with fatty diacid; synthetic construct; SITE 2: note = 2-Aminoisobutyric Acid; SITE 6: note = alpha-methyl-2-fluoro-L-phenylalanine; SITE 10: note = 3-(4-Pyridyl)-L-alanine; SITE 11: note = alpha-methyl-L-serine; SITE 13: note = alpha-methyl-leucine; SITE 16: note = L-ornithine; SITE 17: note = Lysine is chemically mo
B2: Example 1182 (peptide)
chain: YXQGTFTSDXXQXLDXKAQXQFIEXLIAXGPSSGEPPPSGGGE
modifications: non-natural residues; lysine acylated with C18 diacid; C-terminal amide; synthetic construct; SITE 2: note = 2-Aminoisobutyric Acid; SITE 10: note = 3-(4-Pyridyl)-L-alanine; SITE 11: note = alpha-methyl-L-serine; SITE 13: note = alpha-methyl-leucine; SITE 16: note = L-ornithine; SITE 17: note = Lysine is chemically modified through conjugation of the epsilon-amino group
B3: Example 1183 (peptide)
chain: YXQGTFTSDXXQXLDXKAQXQFIQXLIEXGPSSGEPPPSGGGE
modifications: non-natural residues; lipidated Lys; C-terminal amide; synthetic construct; SITE 2: note = 2-Aminoisobutyric Acid; SITE 10: note = 3-(4-Pyridyl)-L-alanine; SITE 11: note = alpha-methyl-L-serine; SITE 13: note = alpha-methyl-leucine; SITE 16: note = L-ornithine; SITE 17: note = Lysine is chemically modified through conjugation of the epsilon-amino group
B4: Example 1177 (peptide)
chain: YXQGTXTSDXXIXLDXKAQXEFIEXLIEGGPSSGEPPPSGE
modifications: non-natural residues; Lys acylated C18 diacid via AEEA-γGlu2; C-term amide; synthetic construct; SITE 2: note = 2-Aminoisobutyric Acid; SITE 6: note = alpha-methyl-2-fluoro-L-phenylalanine; SITE 10: note = 3-(4-Pyridyl)-L-alanine; SITE 11: note = alpha-methyl-L-serine; SITE 13: note = alpha-methyl-leucine; SITE 16: note = L-ornithine; SITE 17: note = Lysine is chemically mo
B5: Example 1202 (peptide)
chain: YXQGTXTSDXXIXLDXKAQXEFIQXLIEGGPSSGAPPPSGS
modifications: synthetic construct; SITE 2: note = 2-Aminoisobutyric Acid; SITE 6: note = alpha-methyl-2-fluoro-L-phenylalanine; SITE 10: note = 3-(4-Pyridyl)-L-alanine; SITE 11: note = alpha-methyl-L-serine; SITE 13: note = alpha-methyl-leucine; SITE 16: note = L-ornithine; SITE 17: note = Lysine is chemically mo
B6: Example 1189 (peptide)
chain: YXQGTXTSDXXIXLDXKAQXEFIEXLIEGGPPSXXPPPXGS
modifications: non-natural residues, C-terminal amide, acylated Lys with fatty diacid; synthetic construct; SITE 2: note = 2-Aminoisobutyric Acid; SITE 6: note = alpha-methyl-2-fluoro-L-phenylalanine; SITE 10: note = 3-(4-Pyridyl)-L-alanine; SITE 11: note = alpha-methyl-L-serine; SITE 13: note = alpha-methyl-leucine; SITE 16: note = L-ornithine; SITE 17: note = Lysine is chemically mo
B7: Example 1195 (peptide)
chain: YXQGTXTSDXXIXLDXKAQXEFIEXLIEGGPPSXXPPPXGE
modifications: non-natural residues; acylated Lys; C-terminal amide; synthetic construct; SITE 2: note = 2-Aminoisobutyric Acid; SITE 6: note = alpha-methyl-2-fluoro-L-phenylalanine; SITE 10: note = 3-(4-Pyridyl)-L-alanine; SITE 11: note = alpha-methyl-L-serine; SITE 13: note = alpha-methyl-leucine; SITE 16: note = L-ornithine; SITE 17: note = Lysine is chemically mo
B8: Example 1190 (peptide)
chain: YXQGTXTSDXXIXLDXKAQXEFIEXLIEGGPPSXEPPPEGE
modifications: non-natural residues, acylated Lys, C-terminal amide; synthetic construct; SITE 2: note = 2-Aminoisobutyric Acid; SITE 6: note = alpha-methyl-2-fluoro-L-phenylalanine; SITE 10: note = 3-(4-Pyridyl)-L-alanine; SITE 11: note = alpha-methyl-L-serine; SITE 13: note = alpha-methyl-leucine; SITE 16: note = L-ornithine; SITE 17: note = Lysine is chemically mo
B9: Example 1196 (peptide)
chain: YXQGTXTSDXXIXLDXKAQXEFIEXLIEGGPPSXXPPPXSE
modifications: non-natural residues; lipidated Lys AEEA-γGlu-C18 diacid; C-term amide; synthetic construct; SITE 2: note = 2-Aminoisobutyric Acid; SITE 6: note = alpha-methyl-2-fluoro-L-phenylalanine; SITE 10: note = 3-(4-Pyridyl)-L-alanine; SITE 11: note = alpha-methyl-L-serine; SITE 13: note = alpha-methyl-leucine; SITE 16: note = L-ornithine; SITE 17: note = Lysine is chemically mo
B10: Example 1192 (peptide)
chain: YXQGTXTSDXXIXLDXKAQXEFIEXLIEGGPSSXAPPPEGE
modifications: non-natural residues; AEEA-γGlu-C18 diacid on Lys; C-terminal amide; synthetic construct; SITE 2: note = 2-Aminoisobutyric Acid; SITE 6: note = alpha-methyl-2-fluoro-L-phenylalanine; SITE 10: note = 3-(4-Pyridyl)-L-alanine; SITE 11: note = alpha-methyl-L-serine; SITE 13: note = alpha-methyl-leucine; SITE 16: note = L-ornithine; SITE 17: note = Lysine is chemically mo
B11: Example 1191 (peptide)
chain: YXQGTXTSDXXIXLDXKAQXEFIEXLIEGGPPSGEPPPEGE
modifications: non-natural residues; lipidated Lys AEEA-γGlu-C18 diacid; C-term amide; synthetic construct; SITE 2: note = 2-Aminoisobutyric Acid; SITE 6: note = alpha-methyl-2-fluoro-L-phenylalanine; SITE 10: note = 3-(4-Pyridyl)-L-alanine; SITE 11: note = alpha-methyl-L-serine; SITE 13: note = alpha-methyl-leucine; SITE 16: note = L-ornithine; SITE 17: note = Lysine is chemically mo
B12: Example 1194 (peptide)
chain: YXQGTXTSDXXIXLDXKAQXEFIEXLIEGGPPSXXPPPEGE
modifications: non-natural residues; lipidated Lys; C-terminal amide; synthetic construct; SITE 2: note = 2-Aminoisobutyric Acid; SITE 6: note = alpha-methyl-2-fluoro-L-phenylalanine; SITE 10: note = 3-(4-Pyridyl)-L-alanine; SITE 11: note = alpha-methyl-L-serine; SITE 13: note = alpha-methyl-leucine; SITE 16: note = L-ornithine; SITE 17: note = Lysine is chemically mo
B13: Example 1193 (peptide)
chain: YXQGTXTSDXXIXLDXKAQXEFIEXLIEGGPPSXEPPPXGE
modifications: non-natural residues (Aib, αMeF(2F), 4Pal, Orn, Me4Pal); lipidated Lys; C-amide; synthetic construct; SITE 2: note = 2-Aminoisobutyric Acid; SITE 6: note = alpha-methyl-2-fluoro-L-phenylalanine; SITE 10: note = 3-(4-Pyridyl)-L-alanine; SITE 11: note = alpha-methyl-L-serine; SITE 13: note = alpha-methyl-leucine; SITE 16: note = L-ornithine; SITE 17: note = Lysine is chemically mo

Legend:
Assay in all cases: cell-based or functional assay
[1] = molecular target: human glucagon receptor (human) (UniProt P47871)
Chain of human glucagon receptor (human) (P47871 26-477): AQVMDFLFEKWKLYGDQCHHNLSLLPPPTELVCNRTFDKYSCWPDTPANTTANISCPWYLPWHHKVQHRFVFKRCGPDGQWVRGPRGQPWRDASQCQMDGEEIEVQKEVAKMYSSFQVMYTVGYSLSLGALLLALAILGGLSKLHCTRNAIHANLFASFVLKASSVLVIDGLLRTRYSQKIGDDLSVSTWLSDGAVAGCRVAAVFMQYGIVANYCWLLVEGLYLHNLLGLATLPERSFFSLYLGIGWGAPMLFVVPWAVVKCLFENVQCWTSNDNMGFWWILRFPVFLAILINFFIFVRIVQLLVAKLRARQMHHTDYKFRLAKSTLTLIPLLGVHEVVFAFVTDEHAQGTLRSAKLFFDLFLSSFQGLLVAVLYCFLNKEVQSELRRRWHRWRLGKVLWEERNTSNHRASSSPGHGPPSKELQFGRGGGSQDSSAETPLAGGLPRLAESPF

[2] = molecular target: T1, human GIP receptor (human)
hGLP-1R = hGLP-1R (Homo sapiens, UniProt P43220)
Chain of hGLP-1R (P43220 24-463): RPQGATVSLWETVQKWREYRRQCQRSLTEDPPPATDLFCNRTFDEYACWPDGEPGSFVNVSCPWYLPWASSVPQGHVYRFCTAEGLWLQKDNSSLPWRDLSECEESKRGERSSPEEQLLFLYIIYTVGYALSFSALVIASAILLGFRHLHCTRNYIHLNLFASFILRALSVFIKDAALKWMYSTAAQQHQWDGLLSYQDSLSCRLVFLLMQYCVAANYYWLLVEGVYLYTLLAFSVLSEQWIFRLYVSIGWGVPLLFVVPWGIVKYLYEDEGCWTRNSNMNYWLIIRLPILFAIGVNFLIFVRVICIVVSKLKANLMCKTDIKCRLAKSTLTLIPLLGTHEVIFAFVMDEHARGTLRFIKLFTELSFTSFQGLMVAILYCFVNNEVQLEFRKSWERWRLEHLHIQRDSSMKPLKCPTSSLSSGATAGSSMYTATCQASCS

Binder | Relative cAMP EC50 [1] [nM] | cAMP Rel EC50 (in the presence of 1% HSA) [1] [nM] | Relative cAMP EC50 [2] [pM] | cAMP Rel EC50 (in the presence of 1% HSA) [2] [nM] | Relative cAMP EC50 (hGLP-1R) [nM] | cAMP Rel EC50 (in the presence of 1% HSA) (hGLP-1R) [nM] | cAMP Rel EC50 (1% HSA) [1] [nM] | cAMP Rel EC50 (1% HSA) [2] [nM] | cAMP Rel EC50 (1% HSA) (hGLP-1R) [nM]
B1 | 2.87 | 197 | 10.2 | 0.58 | 0.652 | 37.9 | – | – | –
B2 | 1.24 | 172 | 31.6 | 2.73 | 0.797 | 80.4 | – | – | –
B3 | 1.38 | 127 | 48.4 | 3.16 | 0.769 | 53.6 | – | – | –
B4 | 4.23 | 156 | 11.4 | 0.544 | 0.681 | 43.6 | – | – | –
B5 | 0.5 | – | 6.35 | – | 0.237 | – | 70.3 | 0.471 | 23.1
B6 | 1.59 | 248 | 5.97 | 0.584 | 0.292 | 45.4 | – | – | –
B7 | 1.74 | 242 | 7.08 | 0.637 | 0.367 | 44.2 | – | – | –
B8 | 1.68 | 192 | 10.9 | 0.954 | 0.765 | 77.4 | – | – | –
B9 | 1.9 | 257 | 7.56 | 0.605 | 0.418 | 45.4 | – | – | –
B10 | 1.54 | 218 | 9.24 | 1.06 | 0.499 | 59.5 | – | – | –
B11 | 3.06 | 243 | 9.92 | 0.931 | 0.945 | 82.3 | – | – | –
B12 | 2.02 | 215 | 7.25 | 0.759 | 0.51 | 57.4 | – | – | –
B13 | 1.56 | 202 | 8.97 | 0.803 | 0.544 | 66.2 | – | – | –
